First the molecules themselves.
T1: ND2 310-321 peptide (human)
T1 peptide: NVKMKWQFEHTK

B1: Src40-49-Tat (peptide)
peptide: KPASADGHRGYGRKKRRQRRR
B2: Src 40-58 peptide (plated, unlabelled) (peptide)
peptide: KPASADGHRGPSAAFVPAA
B3: biotinylated Src 40-58 peptide (peptide)
peptide: KPASADGHRGPSAAFVPAA
modifications: also: biotinylated, position not given here
notes: Probe in dot blots (~15 ug/ml) and ELISA (6 uM); also called biotin-Src 40-58; Biotin-Src 40-58
B4: biotinylated ND2 310-321 (peptide)
peptide: NVKMKWQFEHTK
modifications: also: biotinylated, position not given here
B5: Tat-Src40-49 (peptide)
peptide: YGRKKRRQRRRKPASADGHRG
B6: Tat-ND2 310-321 (peptide)
peptide: YGRKKRRQRRRNVKMKWQFEHTK
B7: Src40-49 peptide (peptide)
peptide: KPASADGHRG
B8: biotinylated scrambled Src 40-58 control peptide (peptide)
peptide: AGSHAPFPSPARAGVAPDA
modifications: also: biotinylated, position not given here
notes: Scrambled negative control; also called sSrc 40-58; B-sSRC 40-58
B9: biotinylated Src40-49 peptide (peptide)
peptide: KPASADGHRG
modifications: also: biotinylated, position not given here
notes: Labelled probe; also called bio-Src 40-49; Bio-Src40-49
B10: GST-ND2.1.4 (AA 289-321) (other)
chain: NLYFYLRLIYSTSITLLPMSNNVKMKWQFEHTK
modifications: also: GST fusion, linker and position in fusion not given here
notes: also called ND2 2.1.4; not shown: glutathione S-transferase (GST) fusion partner

The target in assay [1] is B4. Description: dot blot, Src fragments spotted, probed with Bio-ND2 310-321 (FIG. 5A).
For assay [2], the target named is B6. Description: competition ELISA, competitor against biotinylated Src40-49, Tat-ND2 310-321 pre-coated (FIG. 5E).
Assay [3] has as its target B6. Put plainly: ELISA, plate coated with Tat-ND2 310-321 (FIG. 5C). In general terms: An ELISA detects its analyte on a solid surface through an enzyme-linked reagent.
In assay [4] the target is B4. Put plainly: ELISA, Src peptides plated at ~5 uM (FIG. 5B).
For assay [5], the target named is B6. Put plainly: ELISA (FIG. 6).
Assay [6] concerns the target T2, GST-ND2 (full length ND2) (human, UniProt P03891 1-347).
T2 construct: GST fusion protein, expressed and purified; printed as full length ND2; not shown: glutathione S-transferase (GST) fusion partner
Put plainly: dot blot, GST proteins spotted, probed with biotinylated Src 40-58 (FIG. 1C).

Assay [7] addresses T1, ND2 310-321 peptide. Put plainly: ELISA (FIG. 6); ND2 310-321 is the weaker comparator.
The target of the assay “GST-ND2.1.4 (AA 289-321)” is B10. Put plainly: ELISA, GST-ND2.1.4 coated, biotin-Src 40-58 at 6 uM, SA-HRP (FIG. 2C).
In assay [8] the target is T3, GST-ND2.1 (AA239-321) (human, UniProt P03891 239-321).
T3 construct: not shown: glutathione S-transferase (GST) fusion partner
Put plainly: ELISA, GST-ND2.1 coated, biotin-Src 40-58 at 6 uM, SA-HRP (FIG. 2C).

The assay “Tat-Src40-49” concerns the target B5. Put plainly: dot blot (FIG. 5A).
The target in the assay “Src40-49 peptide” is B7. Description: dot blot (FIG. 5A).
The assay “Src40-49-Tat” has as its target B1. Put plainly: dot blot (FIG. 5A).
Assay [9] has as its target B2. Description: ELISA (FIG. 5B).
Assay [10] concerns the target T1, ND2 310-321 peptide. Description: competition ELISA, competitor against biotinylated Src40-49 (FIG. 5D).
The target of assay [11] is B3. Put plainly: ELISA (FIG. 6).
The target in assay [12] is B9. Description: competition ELISA, competitor against coated ND2 310-321 peptide (FIG. 7).
Assay [13] has as its target T3, GST-ND2.1 (AA239-321). Put plainly: dot blot of GST-ND2 constructs (FIG. 2B).
Protocol: (§1) In general, 1-10 ug of peptide or recombinant protein was spotted onto nitrocellulose and dried overnight. Membranes were blocked with 5% milk for 1 h at room temperature, then incubated with biotinylated peptides (˜15 ug/ml) for 2 hours the washed using standard wash buffers. Bound probe was detected using a short incubation with streptavidin conjugated to horseradish peroxidase (SA-HRP) and standard detection reagents, predominantly chemiluminescence kits.
The target in assay [14] is T2, GST-ND2 (full length ND2). Description: dot blot of GST-ND2 constructs (FIG. 2B).
Protocol: as §1
In assay [15] the target is B8. Description: dot blot of GST-ND2 constructs (FIG. 2B).
Protocol: as §1
For assay [16], the target named is B3. Description: ELISA (FIG. 2C).

No end group written: not given here.

T2 sequence (P03891 whole entry, the tested form may be a part): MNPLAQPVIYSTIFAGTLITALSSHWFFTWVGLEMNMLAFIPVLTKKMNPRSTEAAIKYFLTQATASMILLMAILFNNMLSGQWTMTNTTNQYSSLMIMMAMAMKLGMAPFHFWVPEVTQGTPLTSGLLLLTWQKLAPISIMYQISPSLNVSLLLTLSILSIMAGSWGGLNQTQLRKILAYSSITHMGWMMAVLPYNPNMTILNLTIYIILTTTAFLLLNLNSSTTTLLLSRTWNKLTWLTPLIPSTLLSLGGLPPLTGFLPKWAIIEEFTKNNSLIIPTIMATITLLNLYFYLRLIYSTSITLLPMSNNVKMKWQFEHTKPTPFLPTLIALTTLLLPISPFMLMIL

Consider B1, for which the binding result with biotinylated ND2 310-321 [1] and in the assay with Tat-ND2 310-321 [2] was “binds” in each case.

As for GAAKRPSDGH (also: biotinylated, position not given here, also called Bio-sSrc 40-49; sSrc40-49) [biotinylated scrambled Src 40-49 control peptide], the binding result with Tat-ND2 310-321 [3] was “no binding”.

For the molecule B2, the binding result with biotinylated ND2 310-321 [4] is reported as “binds”.

For the molecule B3, the binding result (with Tat-ND2 310-321 [5]; in assay [6]; with ND2 310-321 peptide [7]; with GST-ND2.1.4 (AA 289-321); with GST-ND2.1 (AA239-321) [8]) was “binds” in each case.

Turning to B4, the binding result (with Tat-Src40-49; with Src40-49 peptide; with Src40-49-Tat; in assay [9]) was “binds” throughout.

With B5, the binding result with ND2 310-321 peptide [10] and with biotinylated ND2 310-321 [1] was “binds” throughout.

For B6, the binding result in [11] and in [12] was “binds” in each case.

As for B7, in the assay with biotinylated ND2 310-321 [1], the binding result was “binds”.

Regarding B8, the binding result (in the assay with GST-ND2.1 (AA239-321) [13]; in assay [14]) was “no binding (tested: ~15 ug/ml biotinylated peptide)” throughout.

Regarding B9, the binding result with Tat-ND2 310-321 [3] is reported as “binds”.

In the case of B10, the binding result in [15] is listed as “no binding (tested: ~15 ug/ml biotinylated peptide)”; in assay [16], “binds”.

(Values after patent publication US20140274906A1 (NONO, published 2014).)
